Measured values published in publication PMC6086726.

Target: Type I-F Csy surveillance complex of Pseudomonas aeruginosa PA14 (Csy1-4 with crRNA) (Pseudomonas aeruginosa PA14) (UniProt Q02ML9)
Assay: SPR

“AcrIF4 (gene 37 from phage JBD26) (natural protein)” gave a Kd of 400 nM.
